Source: patent US20050019808A1 (WISCONSIN ALUMNI RESEARCH FOUNDATION, published 2005)

B1: recombinant Mengo 2A protein (other)
chain: SPNPLDVSKTYPTLHILLQFNHRGLEARIFRHGQLWAETHAEVVLRSKTKQISFLSNGSYPSMDATTPLNPWKSTYQAVLRAEPHRVTMDVYHKRIRPFRLPLVQKEWRTCEENVFGLYHVFETHYAGYFSDLLIHDVETNPG
notes: domain: 2A; also called r2A; recombinant 2A
B2: recombinant Mengo 2B protein (other)
chain: PFTFKPRQRPVFQTQGAAVSSMAQTLLPNDLASKAMGSAFTALLDANEDAQKAMKIIKTLSSLSDAWENVKGTLNNPEFWKQLLSRCVQLIAGMTIAVMHPDPLTLLCLGVLTAAEITSQTSLCEEIAAKFKTIFTTPPPRFPVISLFQQQ
notes: domain: 2B; also called recombinant 2B protein

Experiments:
[1] = biological target: the molecule itself; assay: SDS-PAGE and Western, self-association (dimer)
B23 (nucleophosmin) = biological target: T1, B23 (nucleophosmin) (UniProt P06748 1-294); assay: mobility shift, 4% native PAGE, Western with Ab-B23; not sensitive to RNaseA
T1 construct: Endogenous protein of HeLa cells; also called protein B23; ribosomal chaperone protein B23

[2] = biological target: the molecule itself; assay: SDS-PAGE and Western, self-association (results not shown)

T1 sequence (P06748 whole entry): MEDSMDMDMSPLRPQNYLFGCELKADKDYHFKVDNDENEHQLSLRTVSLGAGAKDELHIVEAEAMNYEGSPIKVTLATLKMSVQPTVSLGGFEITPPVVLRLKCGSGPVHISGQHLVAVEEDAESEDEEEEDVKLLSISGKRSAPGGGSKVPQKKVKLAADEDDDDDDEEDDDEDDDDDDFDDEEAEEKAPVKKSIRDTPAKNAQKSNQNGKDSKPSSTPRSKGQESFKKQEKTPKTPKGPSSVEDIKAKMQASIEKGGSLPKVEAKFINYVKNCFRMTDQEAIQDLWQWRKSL

| Binder | binding result [1] | binding result (B23 (nucleophosmin)) | binding result [2] |
| --- | --- | --- | --- |
| B1 | binds | binds |  |
| B2 |  |  | binds |
